Experimental data reported in the Human Domainome abundance scans (Beltran et al. 2025).

B1: Tyrosine-protein kinase Lck, residues 63 to 120; numbered along this chain, P06239 (parent)
chain: DNLVIALHSYEPSHDGDLGFEKGEQLRILEQSGEWWKAQSLTTGQEGFIPFNFVAKAN
B2: REST corepressor 3, residues 87 to 134; numbered along this chain, Q9P2K3 (parent)
chain: DEWTVEDKVLFEQAFSFHGKSFHRIQQMLPDKTIASLVKYYYSWKKTR

Variants of: B1
Experiment: abundance fitness (aPCA) (normalised: wild type 0, dead -1); higher = more abundant; growth selection in yeast, the domain comes from the species named
Conditions: Homo sapiens

Abundance fitness: each site, then its substitutions
L18: C -0.898 | D -0.779 | A -0.591 | E -0.757
P12: N -0.557 | K -0.471 | E -0.755 | C -0.387 | F -1.08 | V -0.717 | D -0.439 | L -0.913 | S -0.366 | Q -1 | Y -0.525 | I -0.506 | G -0.497 | T -0.529 | H -0.846 | R -0.705
H14: I -0.118 | D -0.219 | E -0.051 | Q -0.079 | R 0.039 | P -0.793 | S -0.031 | K 0.072 | L -0.267 | A 0.027 | Y -0.165 | G -0.059 | F -0.187 | C -0.033 | N 0.12 | V -0.104 | W -0.328
E11: I -0.177 | T 0.064 | D -0.116 | G -0.431 | R -0.145 | L -0.164 | K 0.206 | V -0.05 | C -0.21 | N -0.171 | A -0.137 | W -0.435 | M -0.409 | F -0.214 | Q -0.199 | H -0.156 | S -0.16 | Y -0.363 | P -0.409
I5: M -0.26
S13: M -0.026 | H -0.174 | N -0.061 | F -0.412 | A -0.177 | C -0.047 | Y -0.18 | V -0.097 | I -0.215 | K 0.171 | E -0.096 | T 0.047 | Q -0.034 | D -0.062 | G -0.251 | P -0.358
Y10: A -0.671 | R -0.289 | V -0.485 | M -0.444 | K -0.113 | T -0.604 | L -0.488 | D -0.511 | P -0.673 | G -0.717 | W -0.019 | F -0.241 | S -0.662 | C -0.415 | H -0.087 | I -0.619 | N -0.587
V4: G -0.431 | M -0.173 | N -0.727 | A 0.123 | R -0.29 | F -0.054 | L -0.04 | H -0.073 | T -0.325
G16: C -0.241 | M -0.259 | F -0.309 | I -0.322 | K -0.362 | S -0.174 | P -1.03 | V -0.328 | H -0.114 | T -0.152 | Y -0.218 | A -0.366 | E -0.247
L3: I 0.091 | R -0.178 | N -0.159 | A -0.79 | Q -0.122 | Y -0.113 | H -0.486 | V -0.212 | G -0.768 | W -0.232 | S -0.343 | D -0.503 | M -0.094 | C -0.273 | P -0.74 | T -0.019 | F -0.304
A6: Y -0.99 | W -1.2 | K -0.933 | S -0.348 | V -0.556 | L -0.845 | C -0.217 | M -0.637 | P -0.897 | H -0.756 | D -0.907 | Q -0.84 | I -0.772 | E -0.857 | T -0.113 | F -0.907 | G -0.212 | N -0.956
D15: W -0.461 | C -0.196 | I -0.225 | R -0.053 | Q -0.02 | G -0.196 | M -0.225 | V -0.273 | L -0.106 | H -0.071 | T -0.124 | F -0.148 | A -0.046 | Y -0.071 | K 0.111 | P -0.075
D1: L -0.487 | P -0.827 | E -0.036 | Y -0.224 | T -0.335 | V -0.519 | A -0.337 | W -0.331 | M -0.334 | N -0.115 | G -0.115
H8: Q -0.086 | G -0.295 | R 0.034 | E -0.096 | P -0.79 | A -0.067 | V -0.227 | K 0.285 | L -0.285 | I -0.262 | N -0.001 | S -0.078 | D 0.003 | T -0.012 | C -0.131
L7: P -0.38 | K -0.232 | H -0.429 | I -0.079 | Q -0.131 | D -0.486 | F -0.705 | C -0.357 | A -0.249 | M -0.097 | E -0.217 | Y -0.54 | T -0.224 | S -0.21 | N -0.602 | V -0.161 | R -0.298
S9: P -0.166 | K 0.017 | I -0.888 | A -0.235 | L -0.84 | T -0.046 | F -0.798 | W -0.923 | V -0.676 | N 0.045 | R -0.11 | E -0.218 | Q -0.276 | Y -0.619 | G -0.116 | H -0.254 | C -0.25 | M -0.473
N2: Y -0.243 | P -0.713 | C -0.309 | T -0.157 | L -0.185 | G -0.428 | D -0.193 | E -0.541 | W -0.526 | H 0.146 | S -0.128 | M -0.075 | R -0.32 | Q -0.174 | V -0.851 | I -0.094 | F 0.034
D17: K 0.051 | E 0.063 | R -0.009 | A -0.006 | P -0.762 | V -0.111 | H 0.011 | G -0.042 | S -0.045 | C -0.022 | W -0.083 | L -0.116 | T -0.255 | M -0.022 | N -0.177 | F -0.229

Variants of: B2
Experiment: as above
Conditions: Homo sapiens

Abundance fitness, by site and new letter:
T47: P -0.075 | R -0.071 | Q -0.979 | W -0.542 | E -0.493 | L -0.408 | S -0.463 | I -0.623 | V -0.752 | A -0.672
K46: H 0.242 | L -0.645 | W -0.729 | F -0.54 | A -0.053 | P -0.782 | T -0.756 | E -0.575 | V -0.399 | S -0.467 | G -0.202
S43: W -0.327 | K 0.134 | D 0.162 | E -0.084 | C -0.027 | M -0.547 | T -0.312 | A -0.128 | V -0.076 | L -0.49 | R 0.021 | G -0.154 | F -0.577 | N -0.172
K45: Y 0.357 | R -0.087 | M 0.081 | C -0.616 | A -0.336 | G -0.69 | Q -0.102 | V -0.454 | N 0.014 | L -0.597 | S -0.143 | W -0.61 | E -0.546 | F -0.493 | I -0.424
R48: G 0.024 | E 0.016 | L 0.326
Y42: H -0.236 | F -0.555 | N 0.216 | G -0.036 | S 0.102 | P -0.821 | V 0.02 | Q -0.117 | W 0.056 | T 0.103 | R 0.234 | L 0.015 | M 0.311 | I -0.11
W44: F 0.414 | A -0.78 | D 0.738 | V -1 | K -0.393 | G -0.649 | T -0.394 | S -0.548 | L -0.329 | R -0.541
